Experimental data as given in patent publication US20260275312, “CRISPR NUCLEASE POLYPEPTIDES AND GENE EDITING SYSTEMS COMPRISING SUCH” (ARBOR BIOTECHNOLOGIES, INC., published 2026).

Molecular target: T1, Nuclease S W509R/T72R/I845R (synthetic construct, W509R,T72R,I845R)
T1 chain: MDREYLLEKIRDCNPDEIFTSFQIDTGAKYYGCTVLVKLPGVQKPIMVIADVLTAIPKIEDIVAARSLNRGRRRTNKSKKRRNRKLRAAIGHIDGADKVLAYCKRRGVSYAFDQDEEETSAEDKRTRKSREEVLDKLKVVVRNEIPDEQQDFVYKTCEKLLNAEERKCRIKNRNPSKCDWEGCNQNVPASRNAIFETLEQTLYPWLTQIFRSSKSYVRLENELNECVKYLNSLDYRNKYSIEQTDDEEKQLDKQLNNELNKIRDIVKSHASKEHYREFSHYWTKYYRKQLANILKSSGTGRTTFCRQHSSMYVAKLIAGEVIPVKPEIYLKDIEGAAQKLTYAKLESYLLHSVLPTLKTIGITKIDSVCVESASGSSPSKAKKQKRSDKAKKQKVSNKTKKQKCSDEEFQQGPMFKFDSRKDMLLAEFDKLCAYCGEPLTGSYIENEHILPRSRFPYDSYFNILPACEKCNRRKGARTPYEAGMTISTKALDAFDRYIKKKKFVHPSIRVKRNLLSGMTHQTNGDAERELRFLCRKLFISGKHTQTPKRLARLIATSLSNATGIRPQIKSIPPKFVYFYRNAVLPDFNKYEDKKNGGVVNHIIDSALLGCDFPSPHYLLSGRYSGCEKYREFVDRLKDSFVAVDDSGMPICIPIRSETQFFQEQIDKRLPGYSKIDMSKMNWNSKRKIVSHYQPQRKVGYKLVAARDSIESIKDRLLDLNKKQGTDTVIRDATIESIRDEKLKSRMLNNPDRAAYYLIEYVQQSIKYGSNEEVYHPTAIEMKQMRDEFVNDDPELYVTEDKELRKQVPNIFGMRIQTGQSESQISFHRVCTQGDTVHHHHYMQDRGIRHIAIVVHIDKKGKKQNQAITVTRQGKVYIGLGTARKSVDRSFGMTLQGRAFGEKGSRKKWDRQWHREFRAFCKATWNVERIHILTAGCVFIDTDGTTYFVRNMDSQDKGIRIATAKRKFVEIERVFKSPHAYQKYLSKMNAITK
Test: cell_activity; HEK293T; PAM AACC
Details: tags: N-term SV40 NLS, XTEN linker + C-term nucleoplasmin NLS
Procedure: HEK293T cells were transfected with plasmids expressing the Nuclease S polypeptides and the gRNAs provided herein following the methods provided in Example 1 above. Gene editing efficiencies were determined by NGS following the methods also provided in Example 1. The NGS results were analyzed also following the methods provided in Example 1 above.
Each Nuclease S variant was cloned as described in Example 6. HEK293T cells were further transfected with a plasmid encoding a Nuclease S variant and a plasmid encoding an RNA guide of Table 11, followed by NGS analysis, as described in Example 5. For each target, indel ratios, referring to the percentage of NGS reads comprising indels, were calculated for the reference Nuclease S (SEQ ID NO: 49) and for each Nuclease S variant. The indel ratios shown in Table 13 were calculated as the average of two bioreplicates, each of which contained two technical replicates.

B1: S AAVS1-T7 RNA guide ; AAVS1-T7 target (S) (ssRNA ; dsDNA)
RNA: GGCUAUAAUCCAUGCUGACCGUUGUAUUCGGAUGGGAGUAAAAGGUUGAGUACACCUGGAAACAAAACGACAUAAAGGUGUUCUCCCAUCUGUGUACAAAGAGCAGAUAUAUGAGUUGAUAAGUAAUAUGUUGCACGUAUGGACUUUGACAGUCUGUACCUCUGCGUGAAAGACAUAUUGCGUUAUUCAUAUAUCUGUGAGUCUGUUCUAAAUUUAAAGGUUUAGGGAA
DNA 1: GGCTATAATCCATGCTGACC
DNA 2: GGTCAGCATGGATTATAGCC
- activity: 0.305 indel ratio
